The results in this text go back to patent US20110301104A1, “Transition state structure of orotate phosphoribosyl transferases and uses thereof” (priority 2008, published 2011).

Common to all, as to assay: purified protein, by the assay type
Substrate in series [1]: O=C(O)CP(=O)(O)O
The series is classed as biochemical, Plasmodium falciparum. The following applies: other: PA as slow substrate. The procedure:
(§1) Expression and Purification of PfOPRT and HsOPRT. The pDEST14 vectors encoding the two OPRT genes were transformed into BL21-AI E. coli competent cells and grown in LB+Amp (100 μg mL^−1) at 37° C. to an OD600 of 0.6. Protein expression was induced by adding 0.02% L-arabinose with overnight growth at 37° C. Cells were harvested by centrifugation at 4° C., weighted and resuspended in lysis buffer (20 mM Tris-HCl, 500 mM NaCl and 5 mM Imidazole, pH=7.9, 3 mL/gram cell pellet). Lysozyme (100 μg mL^−1), DNase I (10 μg mL^−1) and protease inhibitor (1 tablet/8 grams of cells) (Roche Applied Science, Indianapolis, Ind.) were added to the solution. Following disruption in a French Press, cell lysate was centrifuged at 30,000 g for […] at 4° C. […] The 6×His-OPRTs were eluted with a gradient of imidazole (20 mM ˜500 mM). The OPRT bands were visualized on SDS-PAGE gels and fractions with high purity were pooled, made to 10% glycerol and 10 mM β-ME (final concentration), concentrated and dialyzed overnight at 4° C. to remove imidazole. His-tags were removed during dialysis by the presence of thrombin (1 unit/0.1 mg). His-tag free OPRTs were purified by Superdex 200 26/60 Gel filtration column, concentrated and stored at −80° C. […] Reactions were monitored by the absorbance increase at 295 nm to give an extinction coefficient of 3.67 mM^−1 cm^−1.

Substrate in series [2]: O=C(O)c1cc(=O)[nH]c(=O)n1[C@@H]1O[C@H](COP(=O)(O)O)[C@@H](O)[C@H]1O
The class given is biochemical, Plasmodium falciparum. The following applies: 25° C., pH 8.0, 25.0 °C. The procedure: as §1

Substrate in series [3]: O=C(O)CP(=O)(O)O
Particulars: other: PA as slow substrate.

Substrate in series [4]: O=C(O)c1cc(=O)[nH]c(=O)n1[C@@H]1O[C@H](COP(=O)(O)O)[C@@H](O)[C@H]1O
The series is classed as biochemical, human. Particulars: 25° C., pH 8.0. The procedure: as §1

Setting [5] is: other: OMP with PA (20 mM) as substrate.
Where [6] appears, read: other: OMP with PPi (1 mM) as substrate.

B1: PfOPRT (Plasmodium falciparum 3D7) (protein)
chain: MTTIKENEFLCDEEIYKSFVHLKDKICEERKKKELVNNNIDNVNFNDDDDNNYDDDGNSYSSYIKEMKKLLKVVLLKYKALKFGEFILKSKRKSNYFFSSGVLNNIVSSNIICFLLSELILKNKLSFDYLLGASYKGIPMVSLTSHFLFESKKYSNIFYLYDRKEKKEYGDKNVIVGNLDDDDKDILNLKKKTKNNQDEEKKNIIIIDDVFTCGTALTEILAKLKTYEHLKVVAFIVLLNRNEYEINENNQKIYFKDIFEKRVGIPLYSILSYKDDIQSMI
notes: His6 (thrombin-cleavable) (N, cleaved yes); made in house; host or cells: E. coli BL21-AI
A word on the Km: it is the substrate concentration at which the rate is half of its maximum. Usually kcat stands for the number of substrate molecules converted per active site and unit of time at saturation. By kcat/Km is commonly meant the turnover number divided by the Michaelis constant. With B1, in series [1], the Km was found to be 1590 µM and the kcat was determined as 0.023 s⁻¹. In series [2] (setting [5]), the Km is 2.90 ± 1.09 µM, the kcat was 0.014 ± 0.002 s⁻¹ and the kcat/Km came to 4800 M⁻¹ s⁻¹. Besides, in series [2] (setting [6]), the Km turned out to be 3.73 ± 1.36 µM, the kcat came out at 1.96 ± 0.29 s⁻¹ and the kcat/Km came to 530000 M⁻¹ s⁻¹.

B2: HsOPRT (Homo sapiens) (protein)
chain: MAVARAALGPLVTGLYDVQAFKFGDFVLKSGLSSPIYIDLRGIVSRPRLLSQVADILFQTAQNAGISFDTVCGVPYTALPLATVICSTNQIPMLIRRKETKDYGTKRLVEGTINPGETCLIIEDVVTSGSSVLETVEVLQKEGLKVTDAIVLLDREQGGKDKLQAHGIRLHSVCTLSKMLEILEQQKKVDAETVGRVKRFIQENVFVAANHNGSPLSIKEAPKELSFGARAELPRIHPVASKLLR
notes: This HsUMPase truncation construct only expresses its HsOPRT domain; His6 (thrombin-cleavable) (N, cleaved yes); made in house; host or cells: E. coli BL21-AI
In the case of B2, in series [3], the Km came out at 3840 µM and the kcat is 0.017 s⁻¹. Further, in series [4] (setting [5]), the Km was found to be 2.14 ± 0.61 µM, the kcat was 0.017 ± 0.002 s⁻¹ and the kcat/Km came out at 7900 M⁻¹ s⁻¹. In series [4] (setting [6]), the Km was found to be 1.55 ± 0.61 µM, the kcat worked out at 0.10 ± 0.01 s⁻¹ and the kcat/Km came out at 65000 M⁻¹ s⁻¹.
